According to publication PMC7201923:

Target: KPNA2 (UniProt P52292)
Assay: anti-FLAG co-IP, immunoblot
Settings: sites S97

- binding against the reference: stronger
Substance: IRF3 (from UniProt Q14653)
